From patent US20230257470A1 (published 2023)
Positions count from the first letter of the chain named. Names and notes keep the numbering of the source.

T1: human FcγRIIa type R (human, UniProt P12318 36-217)
T1 construct: also called FcgRIIaR; FcγRIIa(R)
T1 chain: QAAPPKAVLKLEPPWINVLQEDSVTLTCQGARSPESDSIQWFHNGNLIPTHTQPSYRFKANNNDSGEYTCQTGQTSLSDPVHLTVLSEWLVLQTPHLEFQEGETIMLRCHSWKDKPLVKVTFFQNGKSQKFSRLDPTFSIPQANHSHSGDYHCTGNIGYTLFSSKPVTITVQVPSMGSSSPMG

T2: human FcγRIIa type H (human, UniProt P12318 36-217)
T2 construct: also called FcgRIIaH; FcγRIIa(H)
T2 sequence: T1 chain with R133H

T3: human FcγRIIb (human, UniProt P31994 43-217, limits assumed)
T3 construct: also called FcgRIIb; FcγIIB
T3 sequence: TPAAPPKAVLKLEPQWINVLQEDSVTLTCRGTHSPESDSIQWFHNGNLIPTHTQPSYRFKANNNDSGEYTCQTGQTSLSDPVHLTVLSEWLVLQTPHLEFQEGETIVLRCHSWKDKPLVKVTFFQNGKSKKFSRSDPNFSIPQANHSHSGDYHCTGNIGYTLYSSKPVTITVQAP

B1: IL6R-BP082/IL6R-L (antibody, human IgG1, name in EU numbering)
heavy: QVQLQESGPGLVKPSETLSLTCAVSGHSISHDHAWSWVRQPPGEGLEWIGFISYSGITNYNPSLQGRVTISRDNSKNTLYLQMNSLRAEDTAVYYCARSLARTTAMDYWGEGTLVTVSSASTKGPSVFPLAPSSKSTSGGTAALGCLVKDYFPEPVTVSWNSGALTSGVHTFPAVLQSSGLYSLSSVVTVPSSSLGTQTYICNVNHKPSNTKVDKKVEPKSCDKTHTCPPCPAPDLLGGDSVFLFPPKPKDTLMISRTPEVTCVVVDVSHEDPEVKFNWYVDGVEVHNAKTKPREEQYNSTYRVVSVLTVLHQDWLNGKEYKCKVSNKALPKPIEKTISKAKGQPREPQVYTLPPSRDELTKNQVSLTCLVKGFYPSDIAVEWESNGQPENNYKTTPPVLDSDGSFFLYSKLTVDKSRWQQGNVFSCSVMHEALHNHYTQESLSLSP
light: DIQMTQSPSSLSASVGDRVTITCRASQDISSYLNWYQQKPGKAPKLLIYYTSRLHSGVPSRFSGSGSGTDFTFTISSLQPEDIATYYCQQGNTLPYTFGQGTKVEIK
notes: copies: 2 + 2
B2: IL6R-BP176/IL6R-L (antibody, human IgG1, name in EU numbering)
heavy: B1 heavy with K328D
light: B1 light
notes: copies: 2 + 2
B3: IL6R-BP086/IL6R-L (antibody, human IgG1, name in EU numbering)
heavy: B1 heavy with D235E, K328A
light: B1 light
notes: copies: 2 + 2
B4: IL6R-BP181/IL6R-L (antibody, human IgG1, name in EU numbering)
heavy: B1 heavy with P273G, K328A
light: B1 light
notes: the list runs over r48 and r49; copies: 2 + 2
B5: IL6R-2B261/IL6R-L (antibody, human IgG1, name in EU numbering)
heavy: B1 heavy with Y298D, K332A
light: B1 light
notes: copies: 2 + 2
B6: IL6R-BP151/IL6R-L (antibody, human IgG1, name in EU numbering)
heavy: B1 heavy with L236Y, G239D, K328A, K332R
light: B1 light
notes: the list runs over r36 and r37; copies: 2 + 2
B7: IL6R-BP085/IL6R-L (antibody, human IgG1, name in EU numbering)
heavy: B1 heavy with D235E, G239D
light: B1 light
notes: copies: 2 + 2
B8: IL6R-BF648/IL6R-L (antibody, human IgG1, name in EU numbering)
heavy: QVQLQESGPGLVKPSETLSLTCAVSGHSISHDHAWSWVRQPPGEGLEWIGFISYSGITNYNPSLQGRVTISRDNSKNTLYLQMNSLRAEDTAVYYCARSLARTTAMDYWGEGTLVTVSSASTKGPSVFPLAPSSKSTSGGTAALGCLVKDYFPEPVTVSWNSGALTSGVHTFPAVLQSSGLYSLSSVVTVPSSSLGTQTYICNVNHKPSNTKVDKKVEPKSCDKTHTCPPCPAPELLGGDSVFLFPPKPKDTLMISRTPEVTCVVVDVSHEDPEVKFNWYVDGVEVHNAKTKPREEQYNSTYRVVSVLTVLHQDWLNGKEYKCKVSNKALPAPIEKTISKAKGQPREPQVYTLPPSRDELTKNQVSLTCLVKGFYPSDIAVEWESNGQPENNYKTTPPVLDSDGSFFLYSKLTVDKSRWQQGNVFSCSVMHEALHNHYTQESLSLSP
light: B1 light
notes: copies: 2 + 2
B9: IL6R-BP083/IL6R-L (antibody, human IgG1, name in EU numbering)
heavy: B1 heavy with D235E, Y298D
light: B1 light
notes: copies: 2 + 2
B10: IL6R-BP131/IL6R-L (antibody, human IgG1, name in EU numbering)
heavy: B1 heavy with G239D
light: B1 light
notes: copies: 2 + 2
B11: IL6R-BP130/IL6R-L (antibody, human IgG1, name in EU numbering)
heavy: B1 heavy with V325M
light: B1 light
notes: copies: 2 + 2
B12: IL6R-2B253/IL6R-L (antibody, human IgG1, name in EU numbering)
heavy: B1 heavy with V325M, K332A
light: B1 light
notes: copies: 2 + 2
B13: IL6R-B3/IL6R-L (antibody, human IgG1)
heavy: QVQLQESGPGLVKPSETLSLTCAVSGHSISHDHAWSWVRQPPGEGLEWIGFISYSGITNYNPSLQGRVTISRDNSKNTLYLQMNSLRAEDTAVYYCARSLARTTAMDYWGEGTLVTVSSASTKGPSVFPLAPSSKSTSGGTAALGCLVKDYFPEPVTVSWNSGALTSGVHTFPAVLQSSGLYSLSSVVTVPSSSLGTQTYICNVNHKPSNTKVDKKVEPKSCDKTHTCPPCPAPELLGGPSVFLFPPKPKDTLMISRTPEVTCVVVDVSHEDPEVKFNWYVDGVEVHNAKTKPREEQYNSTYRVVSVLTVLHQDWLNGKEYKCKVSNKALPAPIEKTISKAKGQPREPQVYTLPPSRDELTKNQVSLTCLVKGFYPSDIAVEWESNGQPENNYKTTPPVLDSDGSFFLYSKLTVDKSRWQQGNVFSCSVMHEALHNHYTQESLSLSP
light: B1 light
notes: IL6R-G1d with K439E (EU numbering); parent polypeptide of the variants; copies: 2 + 2
B14: IL6R-BP178/IL6R-L (antibody, human IgG1, name in EU numbering)
heavy: B1 heavy with G239D, P273G
light: B1 light
notes: the list runs over r43 and r44; copies: 2 + 2
B15: IL6R-BP084/IL6R-L (antibody, human IgG1, name in EU numbering)
heavy: B1 heavy with D235E, V325M
light: B1 light
notes: copies: 2 + 2
B16: IL6R-BP152/IL6R-L (antibody, human IgG1, name in EU numbering)
heavy: B1 heavy with L236Y, G239D, Y298D, K328A, K332R
light: B1 light
notes: the list runs over r38 and r39; copies: 2 + 2
B17: IL6R-BP132/IL6R-L (antibody, human IgG1, name in EU numbering)
heavy: B1 heavy with K328A
light: B1 light
notes: copies: 2 + 2
B18: IL6R-BP146/IL6R-L (antibody, human IgG1, name in EU numbering)
heavy: B1 heavy with D235E, L236Y, G239D, K328A, K332A
light: B1 light
notes: copies: 2 + 2

target: T4, human FcγRIa (human, UniProt P12314 16-292, limits assumed); assay: SPR (Biacore), FcγR over captured antibody; binding amount divided by that of IL6R-BF648/IL6R-L x 100
T4 construct: also called FcgRIa; FcγRI (CD64)
T4 sequence (P12314 16-292 limits assumed): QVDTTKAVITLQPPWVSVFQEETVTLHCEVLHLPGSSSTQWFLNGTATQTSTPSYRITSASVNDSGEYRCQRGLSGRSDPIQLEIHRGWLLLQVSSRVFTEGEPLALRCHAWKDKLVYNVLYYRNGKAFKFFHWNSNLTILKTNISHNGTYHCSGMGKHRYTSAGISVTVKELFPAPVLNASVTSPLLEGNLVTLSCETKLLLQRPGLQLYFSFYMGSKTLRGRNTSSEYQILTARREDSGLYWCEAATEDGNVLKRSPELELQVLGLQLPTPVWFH
Description: (§1) According to the following method, relative binding activities were calculated for the results of analyzing interactions with the respective FcγRs.

relative binding activity | Binder
74 relative (IL6R-BF648/IL6R-L = 100) | B1
102 relative (IL6R-BF648/IL6R-L = 100) | B2
72 relative (IL6R-BF648/IL6R-L = 100) | B3
108 relative (IL6R-BF648/IL6R-L = 100) | B4
100 relative (IL6R-BF648/IL6R-L = 100) | B5
39 relative (IL6R-BF648/IL6R-L = 100) | B6
19 relative (IL6R-BF648/IL6R-L = 100) | B7
100 relative (IL6R-BF648/IL6R-L = 100) | B8
50 relative (IL6R-BF648/IL6R-L = 100) | B9
33 relative (IL6R-BF648/IL6R-L = 100) | B10
104 relative (IL6R-BF648/IL6R-L = 100) | B11
155 relative (IL6R-BF648/IL6R-L = 100) | B12
145 relative (IL6R-BF648/IL6R-L = 100) | B13
51 relative (IL6R-BF648/IL6R-L = 100) | B14
109 relative (IL6R-BF648/IL6R-L = 100) | B15
34 relative (IL6R-BF648/IL6R-L = 100) | B16

Target: T1, human FcγRIIa type R
Assay: as above
Description: as §1

relative binding activity | Binder
126 relative (IL6R-BF648/IL6R-L = 100) | B1
201 relative (IL6R-BF648/IL6R-L = 100) | B2
155 relative (IL6R-BF648/IL6R-L = 100) | B3
362 relative (IL6R-BF648/IL6R-L = 100) | B4
94 relative (IL6R-BF648/IL6R-L = 100) | B5
705 relative (IL6R-BF648/IL6R-L = 100) | B6
279 relative (IL6R-BF648/IL6R-L = 100) | B7
100 relative (IL6R-BF648/IL6R-L = 100) | B8
87 relative (IL6R-BF648/IL6R-L = 100) | B9
364 relative (IL6R-BF648/IL6R-L = 100) | B10
191 relative (IL6R-BF648/IL6R-L = 100) | B17
272 relative (IL6R-BF648/IL6R-L = 100) | B11
288 relative (IL6R-BF648/IL6R-L = 100) | B12
625 relative (IL6R-BF648/IL6R-L = 100) | B13
653 relative (IL6R-BF648/IL6R-L = 100) | B14
445 relative (IL6R-BF648/IL6R-L = 100) | B18
203 relative (IL6R-BF648/IL6R-L = 100) | B15
638 relative (IL6R-BF648/IL6R-L = 100) | B16

target: T2, human FcγRIIa type H; assay: as above
Description: as §1

relative binding activity | Binder
106 relative (IL6R-BF648/IL6R-L = 100) | B1
128 relative (IL6R-BF648/IL6R-L = 100) | B2
116 relative (IL6R-BF648/IL6R-L = 100) | B3
150 relative (IL6R-BF648/IL6R-L = 100) | B4
91 relative (IL6R-BF648/IL6R-L = 100) | B5
621 relative (IL6R-BF648/IL6R-L = 100) | B6
158 relative (IL6R-BF648/IL6R-L = 100) | B7
100 relative (IL6R-BF648/IL6R-L = 100) | B8
91 relative (IL6R-BF648/IL6R-L = 100) | B9
253 relative (IL6R-BF648/IL6R-L = 100) | B10
130 relative (IL6R-BF648/IL6R-L = 100) | B17
224 relative (IL6R-BF648/IL6R-L = 100) | B11
207 relative (IL6R-BF648/IL6R-L = 100) | B12
1600 relative (IL6R-BF648/IL6R-L = 100) | B13
259 relative (IL6R-BF648/IL6R-L = 100) | B14
203 relative (IL6R-BF648/IL6R-L = 100) | B18
162 relative (IL6R-BF648/IL6R-L = 100) | B15
548 relative (IL6R-BF648/IL6R-L = 100) | B16

target: T3, human FcγRIIb; assay: as above
Description: as §1

relative binding activity | Binder
136 relative (IL6R-BF648/IL6R-L = 100) | B1
147 relative (IL6R-BF648/IL6R-L = 100) | B2
137 relative (IL6R-BF648/IL6R-L = 100) | B3
115 relative (IL6R-BF648/IL6R-L = 100) | B5
152 relative (IL6R-BF648/IL6R-L = 100) | B7
100 relative (IL6R-BF648/IL6R-L = 100) | B8
122 relative (IL6R-BF648/IL6R-L = 100) | B9
150 relative (IL6R-BF648/IL6R-L = 100) | B17
156 relative (IL6R-BF648/IL6R-L = 100) | B12
58 relative (IL6R-BF648/IL6R-L = 100) | B13
179 relative (IL6R-BF648/IL6R-L = 100) | B14
156 relative (IL6R-BF648/IL6R-L = 100) | B18
141 relative (IL6R-BF648/IL6R-L = 100) | B15
178 relative (IL6R-BF648/IL6R-L = 100) | B16

target: T5, human FcγRIIIa type V (human, UniProt P08637 17-208, limits assumed); assay: as above
T5 construct: also called FcgRIIIaV; FcγRIIIa(V)
T5 sequence (P08637 other isoform, or with tags, fused parts or gaps limits assumed): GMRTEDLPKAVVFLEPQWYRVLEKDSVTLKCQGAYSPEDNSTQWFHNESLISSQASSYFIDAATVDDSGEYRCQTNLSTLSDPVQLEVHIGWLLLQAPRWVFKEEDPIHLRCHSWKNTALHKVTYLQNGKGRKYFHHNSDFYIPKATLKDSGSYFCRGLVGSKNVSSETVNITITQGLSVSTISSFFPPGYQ
Description: as §1

relative binding activity | Binder
87 relative (IL6R-BF648/IL6R-L = 100) | B1
123 relative (IL6R-BF648/IL6R-L = 100) | B3
122 relative (IL6R-BF648/IL6R-L = 100) | B4
87 relative (IL6R-BF648/IL6R-L = 100) | B5
221 relative (IL6R-BF648/IL6R-L = 100) | B6
104 relative (IL6R-BF648/IL6R-L = 100) | B7
100 relative (IL6R-BF648/IL6R-L = 100) | B8
107 relative (IL6R-BF648/IL6R-L = 100) | B9
118 relative (IL6R-BF648/IL6R-L = 100) | B10
120 relative (IL6R-BF648/IL6R-L = 100) | B17
126 relative (IL6R-BF648/IL6R-L = 100) | B12
3260 relative (IL6R-BF648/IL6R-L = 100) | B13
106 relative (IL6R-BF648/IL6R-L = 100) | B15
